Test results reported in US20070282095.

How the values were obtained:
[1] = molecular target: blood coagulation factor 13 (Fibrogammin P) (UniProt P00488)
fibrinogen = fibrinogen (UniProt P02671)
fibrinogen, sequence (P02671 20-629, chain 1 of 3): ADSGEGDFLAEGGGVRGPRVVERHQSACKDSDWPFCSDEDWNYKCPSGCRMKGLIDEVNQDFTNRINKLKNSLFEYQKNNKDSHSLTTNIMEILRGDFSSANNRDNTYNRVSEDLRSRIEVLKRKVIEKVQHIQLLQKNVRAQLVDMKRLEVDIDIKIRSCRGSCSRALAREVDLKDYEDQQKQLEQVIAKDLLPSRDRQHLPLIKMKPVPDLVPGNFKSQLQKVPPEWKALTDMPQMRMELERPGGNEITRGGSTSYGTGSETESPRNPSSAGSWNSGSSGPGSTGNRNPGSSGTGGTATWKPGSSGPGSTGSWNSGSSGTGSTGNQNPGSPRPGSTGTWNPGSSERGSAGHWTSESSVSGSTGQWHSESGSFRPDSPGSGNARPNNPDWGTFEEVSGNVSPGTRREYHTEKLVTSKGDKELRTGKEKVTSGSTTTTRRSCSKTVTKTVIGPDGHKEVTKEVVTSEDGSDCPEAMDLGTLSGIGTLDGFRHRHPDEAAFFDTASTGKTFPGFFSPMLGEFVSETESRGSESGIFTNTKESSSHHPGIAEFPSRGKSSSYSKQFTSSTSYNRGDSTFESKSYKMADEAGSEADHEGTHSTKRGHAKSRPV
fibrinogen, sequence (chain, as listed by the source, chain 2 of 3): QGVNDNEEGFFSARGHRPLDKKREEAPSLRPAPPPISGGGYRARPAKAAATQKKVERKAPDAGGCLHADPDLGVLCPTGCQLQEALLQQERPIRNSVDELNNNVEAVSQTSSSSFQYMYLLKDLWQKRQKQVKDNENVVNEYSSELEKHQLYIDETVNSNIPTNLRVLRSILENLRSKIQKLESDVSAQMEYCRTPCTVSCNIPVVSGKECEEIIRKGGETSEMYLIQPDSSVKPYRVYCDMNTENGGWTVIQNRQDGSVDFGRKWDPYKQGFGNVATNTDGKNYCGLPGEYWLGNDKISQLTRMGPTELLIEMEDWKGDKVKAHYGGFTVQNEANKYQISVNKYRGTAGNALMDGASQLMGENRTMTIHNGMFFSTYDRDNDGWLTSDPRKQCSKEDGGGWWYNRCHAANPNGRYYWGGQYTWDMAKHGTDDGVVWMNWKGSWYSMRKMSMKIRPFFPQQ
fibrinogen, sequence (chain, as listed by the source, chain 3 of 3): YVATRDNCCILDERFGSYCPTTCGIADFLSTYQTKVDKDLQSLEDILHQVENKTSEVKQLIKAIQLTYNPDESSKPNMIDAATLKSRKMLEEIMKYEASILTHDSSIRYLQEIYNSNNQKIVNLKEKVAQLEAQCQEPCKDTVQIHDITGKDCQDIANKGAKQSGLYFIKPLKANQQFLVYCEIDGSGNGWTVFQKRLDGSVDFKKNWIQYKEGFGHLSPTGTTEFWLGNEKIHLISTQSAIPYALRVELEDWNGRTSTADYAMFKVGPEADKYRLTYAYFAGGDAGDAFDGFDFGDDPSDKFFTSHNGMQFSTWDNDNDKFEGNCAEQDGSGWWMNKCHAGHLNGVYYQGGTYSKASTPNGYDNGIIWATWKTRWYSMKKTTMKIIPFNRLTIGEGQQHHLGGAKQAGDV

blood coagulation factor 13 (Fibrogammin P), sequence (P00488 2-732, chain 1 of 2): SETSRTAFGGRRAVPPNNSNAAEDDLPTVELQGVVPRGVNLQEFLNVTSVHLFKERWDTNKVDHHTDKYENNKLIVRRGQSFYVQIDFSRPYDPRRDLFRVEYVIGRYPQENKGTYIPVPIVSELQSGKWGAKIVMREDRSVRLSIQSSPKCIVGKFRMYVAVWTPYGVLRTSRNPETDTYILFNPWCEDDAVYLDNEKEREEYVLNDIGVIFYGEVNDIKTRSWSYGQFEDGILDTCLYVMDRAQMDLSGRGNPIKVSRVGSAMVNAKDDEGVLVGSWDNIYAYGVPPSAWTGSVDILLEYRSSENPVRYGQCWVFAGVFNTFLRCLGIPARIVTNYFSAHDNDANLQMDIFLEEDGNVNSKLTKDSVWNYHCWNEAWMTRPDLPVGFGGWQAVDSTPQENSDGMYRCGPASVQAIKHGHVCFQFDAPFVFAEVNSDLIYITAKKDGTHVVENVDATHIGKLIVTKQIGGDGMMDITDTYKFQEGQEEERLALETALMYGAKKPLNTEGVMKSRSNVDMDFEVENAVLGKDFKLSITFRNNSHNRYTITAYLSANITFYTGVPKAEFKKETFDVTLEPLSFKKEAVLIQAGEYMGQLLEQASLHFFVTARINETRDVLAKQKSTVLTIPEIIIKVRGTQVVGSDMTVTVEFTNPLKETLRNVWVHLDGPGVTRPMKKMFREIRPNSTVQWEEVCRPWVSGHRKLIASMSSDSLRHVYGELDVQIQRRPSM
blood coagulation factor 13 (Fibrogammin P), sequence (chain, as listed by the source, chain 2 of 2): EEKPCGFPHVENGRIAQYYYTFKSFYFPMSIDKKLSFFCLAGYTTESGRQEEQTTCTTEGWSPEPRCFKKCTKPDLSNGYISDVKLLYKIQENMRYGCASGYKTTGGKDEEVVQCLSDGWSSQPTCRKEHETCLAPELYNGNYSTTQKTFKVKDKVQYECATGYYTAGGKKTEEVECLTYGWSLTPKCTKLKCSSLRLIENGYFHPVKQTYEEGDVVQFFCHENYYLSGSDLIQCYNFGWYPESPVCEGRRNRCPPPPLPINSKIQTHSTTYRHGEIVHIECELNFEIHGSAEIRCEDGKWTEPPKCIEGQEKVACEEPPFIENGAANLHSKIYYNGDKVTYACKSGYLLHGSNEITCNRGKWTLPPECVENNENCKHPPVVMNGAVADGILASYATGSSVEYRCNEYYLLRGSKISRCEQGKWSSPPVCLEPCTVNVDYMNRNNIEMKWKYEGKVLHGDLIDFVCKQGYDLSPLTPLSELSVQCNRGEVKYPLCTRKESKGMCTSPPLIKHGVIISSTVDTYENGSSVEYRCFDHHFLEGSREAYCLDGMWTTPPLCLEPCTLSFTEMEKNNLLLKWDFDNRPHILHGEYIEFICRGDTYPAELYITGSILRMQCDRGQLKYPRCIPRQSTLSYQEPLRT

Row | Substance | cleavage of FXIII A chain, SDS-PAGE (method B), 37°C 3 hours [1] | cleavage of FXIII A chain, SDS-PAGE (method B), 37°C [1] | clot formation from Fbgn (method C), 37°C 3 hours (fibrinogen)
1 | 203A205A99N thrombin (glycine 203 to alanine, serine 205 to alanine, aspartic acid 99 to asparagine in B chain) | no band of an A chain-activated product of FXIII was observed | – | –
2 | 203A205A thrombin (glycine 203 to alanine, serine 205 to alanine in B chain) | – | No band of A chain-activated product of FXIII was observed even in lane 6 which was obtained after 3 hour-incubation | –
3 | 203A205G thrombin (glycine at position 203 in B chain substituted by alanine, serine at position 205 substituted by glycine) | – | No band of an A chain-activated product of FXIII was observed in the sample (lane 6) which was obtained after 3-hour incubation | no clot formation was observed
4 | 203A thrombin (glycine at position 203 in B chain substituted by alanine) | – | The A chain of FXIII was observed to provide a cleaved product 30 minutes later, and more than half of the A chain was cleaved after three hours | a clot was formed after three hours
5 | 205A43S thrombin (serine 205 to alanine, histidine 43 to serine in B chain) | no band of A chain-activated product of FXIII was observed | – | –
6 | 205A99N thrombin (serine 205 to alanine, aspartic acid 99 to asparagine in B chain) | no band of an A chain-activated product of FXIII was observed | – | –
7 | 205A thrombin (serine at position 205 in B chain substituted by alanine) | – | Even 3 hours later, no A chain of activated FXIII was observed as shown in lane 8 | –
8 | 205G43A thrombin (serine 205 to glycine, histidine 43 to alanine in B chain) | no band of an A chain-activated product of FXIII was observed | – | –
9 | 205T thrombin (serine at position 205 in B chain substituted by threonine) | A chains of almost all FXIII were activated in a similar manner as that of the wild-type thrombin, and bands of cleaved FXIII were observed | – | –
